Molecular target: human asialo-haptoglobin, phenotype 1-1 (Hp heterotetramer of two α1 and two β-subunits) (human) (UniProt P00738)
Test: native MS

stoichiometry N (Hb heterodimers per Hp heterotetramer): 2
Substance: human hemoglobin holo-heterodimer (αHb and βHb) (from UniProt P69905 1-142; P68871 1-147) (complex)

— article PMC6126716
